Data published in the supplement of paper PMC10567573.

B1: FAM9B (parent)
chain: EDLTAKRKRMKMDKTCSKTKNKSK

Variants of: B1
Assay: protein stability index of a GFP-peptide fusion (GPS, HEK-293T) (PSI 1-6); higher = more stable
Conditions: c terminus: a fixed tail appended
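Further: lentivirally expressed fusions sorted by FACS into six bins by GFP to DsRed ratio, PSI derived from sequencing read proportions per bin multiplied by bin number.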

Protein stability index: each site, then its substitutions
M12: R 4.72, S 5.9, T 5.54, V 4.45, W 3.86, Y 5.16
D13: A 4.99, C 4.33, E 5.57, F 4.26, G 5.48, H 4.64, I 4.89, K 4.7, L 4.77, M 3.91, N 5.3, P 4.66, Q 5.41, R 4.49, S 4.89, T 5.01, V 5.36, W 4.8, Y 5.14
K14: A 4.99, C 4.41, D 5.14, E 5.07, F 4.48, G 5.19, H 5.36, I 3.76, L 4.83, M 5.45, N 5.51, P 5.37, Q 4.99, R 5.37, S 5.03, T 5.03, V 5.07, W 4.73, Y 5.22
T15: A 5, C 5.36, D 4.91, E 5.2, F 4.8, G 4.55, H 4.6, I 5.12, K 4.48, L 5.07, M 5.11, N 5.33, P 5, Q 5.42, R 4.88, S 4.24, V 4.9, W 4.78, Y 5
C16: A 4.69, D 5.67, E 5.47, F 4.93, G 4.11, H 4.66, I 4.71, K 4.96, L 5.05, M 5.27, N 5.46, P 5.57, Q 5.45, R 5.47, S 5.33, T 5.63, V 5.53, W 5.08, Y 5.54
S17: A 4.7, C 5.05
